Measured values as given in patent US20200318066A1.

Tests used:
[1] = biological target: H-2Kb (MHC-I) presenting the ovalbumin epitope SIINFEKL (SEQ ID NO: 54) (mouse); test: flow cytometry, 25-D1.16 staining of monocytes in OVA-loaded splenocytes against SQZ only, 2 and 4 h after SQZ
[2] = biological target: H-2Kb (MHC-I) presenting the ovalbumin epitope SIINFEKL (SEQ ID NO: 54) (mouse); test: flow cytometry, 25-D1.16 staining of T, B and NK cells in OVA-loaded splenocytes against SQZ only, 2 and 4 h after SQZ

- increase in fluorescence intensity [1]: > 10%
- increase in fluorescence intensity [2]: > 40%
Substance: 25-D1.16 antibody
